In PMC2748308:

Tests used:
Experiment in all cases: purified protein
Details in all cases: 50 mM Hepes pH 8.0
purified protein [1] = substrate: CC(=O)N[C@@H](CC(C)C)C(=O)O
purified protein [2] = substrate: CC(C)C[C@H](NC(=O)[C@H](C)N)C(=O)O
purified protein [3] = substrate: CC(C)C[C@H](NC=O)C(=O)O
purified protein [4] = substrate: C[C@H](N)C(=O)N[C@@H](Cc1ccccc1)C(=O)O
purified protein [5] = substrate: CC(=O)N[C@@H](Cc1ccc(O)cc1)C(=O)O
purified protein [6] = substrate: CC(=O)N[C@@H](Cc1ccccc1)C(=O)O
purified protein [7] = substrate: CC(C)C[C@H](NC(=O)[C@@H](N)CC(=O)O)C(=O)O
purified protein [8] = substrate: CC(C)[C@H](NC=O)C(=O)O
purified protein [9] = substrate: CC[C@H](C)[C@H](NC(C)=O)C(=O)O
purified protein [10] = substrate: CC[C@H](C)[C@H](NC=O)C(=O)O
purified protein [11] = substrate: CSCC[C@H](NC=O)C(=O)O
purified protein [12] = substrate: O=CN[C@@H](Cc1ccc(O)cc1)C(=O)O
purified protein [13] = substrate: O=CN[C@@H](Cc1ccccc1)C(=O)O

B1: Sgx9355e (Alteromonas macleodii) (protein)
chain: MSLDVDSKTLIHAGKLIDGKSDQVQSRISIVIDGNIISDIKKGFISSNDFEDYIDLRDHTVLPGLMDMHVHFGQEYQSKAQAPIKVEREMQAILATQHAYVTFKSGFTTVRQVGDSGLVAISLRDAINSGKLAGPRIFAAGKTIATTGGHADPTNGKAVDDYDYPVPEQGVVNGPYEVYAAVRQRYKDGADGIKITVTGGVLSVAKSGQNPQFTQEEVDAVVSAAKDYGMWVAVHAHGAEGMKRAIKAGVDSIEHGTFMDLEAMDLMIENGTYYVPTISAGEFVAEKSKIDNFFPEIVRPKAASVGPQISDTFRKAYEKGVKIAFGTDAGVQKHGTNWKEFVYMVENGMPAMKAIQSATMETAKLLRIEDKLGSIESGKLADLIAVKGNPIEDISVLENVDVVIKDGLLYE
**Q.** Which results are given for B1?
**A.** Km (purified protein [1]): 110 ± 10 µM; kcat (purified protein [1]): 0.032 ± 0.01 s⁻¹; Km (purified protein [2]): 250 ± 30 µM; kcat (purified protein [2]): 0.34 ± 0.01 s⁻¹; kcat/Km (purified protein [2]): 1300 ± 200 M⁻¹ s⁻¹; Km (purified protein [3]): 260 ± 40 µM; kcat (purified protein [3]): 0.072 ± 0.003 s⁻¹; kcat/Km (purified protein [3]): 280 ± 40 M⁻¹ s⁻¹; Km (purified protein [4]): 70 ± 10 µM; kcat (purified protein [4]): 0.41 ± 0.01 s⁻¹; kcat/Km (purified protein [4]): 5800 ± 600 M⁻¹ s⁻¹

B2: Cc0300 (Caulobacter vibrioides CB15) (protein)
chain: QATFVQAGRLLADPATGKVEIAKTLVLENGKVTRILDGYVAEPGGKVVDLKDSFVLPGLIDSHVHLTGQQNPNGRLQAVTQSPSDSAMVGAGFARKTLMAGFTTVANLGANSQAIFALREGVKRGDVAGPRILASGSSISVHGGHGDINGYSEDVMHALRPESVCSGADDCRRAVREQIWLGADLIKITATGGVLSNTAAGLAKQFSDAELAAIVESAHSMGRKVTAHAHGGDGINAFLKAGGDSIEHGTYLDNEGIALMKKSGAYLVPTLMAGDFVYRIASGPNNYFTPAQTAKALEAGPKMLDMVRRAHADGVKVAFGTDSGVSAHGDNAGEFALLVKAGMTPLEAIQTATVNAADHFSLSNEIGSLTPGKAADLIAVKGDPLKDVTELQRVTSVIKGGVVYK
**Q.** Which results are given for B2?
**A.** Km (purified protein [1]): 150 ± 30 µM; kcat (purified protein [1]): 2.5 ± 0.1 s⁻¹; kcat/Km (purified protein [1]): 16000 ± 3000 M⁻¹ s⁻¹; Km (purified protein [5]): 170 ± 20 µM; kcat (purified protein [5]): 4.6 ± 0.2 s⁻¹; kcat/Km (purified protein [5]): 27000 ± 3000 M⁻¹ s⁻¹; Km (purified protein [6]): 310 ± 30 µM; kcat (purified protein [6]): 5.3 ± 0.2 s⁻¹; kcat/Km (purified protein [6]): 17000 ± 2000 M⁻¹ s⁻¹; Km (purified protein [7]): 220 ± 40 µM; kcat (purified protein [7]): 29 ± 1 s⁻¹; kcat/Km (purified protein [7]): 130000 ± 20000 M⁻¹ s⁻¹; Km (purified protein [2]): 350 ± 40 µM; kcat (purified protein [2]): 37 ± 2 s⁻¹; kcat/Km (purified protein [2]): 110000 ± 10000 M⁻¹ s⁻¹; Km (purified protein [3]): 130 ± 10 µM; kcat (purified protein [3]): 39 ± 2 s⁻¹; kcat/Km (purified protein [3]): 300000 ± 30000 M⁻¹ s⁻¹; Km (purified protein [8]): 80 ± 10 µM; kcat (purified protein [8]): 18 ± 1 s⁻¹; kcat/Km (purified protein [8]): 220000 ± 30000 M⁻¹ s⁻¹; Km (purified protein [9]): 140 ± 20 µM; kcat (purified protein [9]): 2.6 ± 0.1 s⁻¹; kcat/Km (purified protein [9]): 19000 ± 2000 M⁻¹ s⁻¹; Km (purified protein [10]): 70 ± 10 µM; kcat (purified protein [10]): 20 ± 1 s⁻¹; kcat/Km (purified protein [10]): 290000 ± 40000 M⁻¹ s⁻¹; Km (purified protein [11]): 410 ± 30 µM; kcat (purified protein [11]): 12 ± 1 s⁻¹; kcat/Km (purified protein [11]): 29000 ± 2000 M⁻¹ s⁻¹; Km (purified protein [4]): 660 ± 50 µM; kcat (purified protein [4]): 19 ± 1 s⁻¹; kcat/Km (purified protein [4]): 29000 ± 3000 M⁻¹ s⁻¹; Km (purified protein [12]): 90 ± 10 µM; kcat (purified protein [12]): 33 ± 1 s⁻¹; kcat/Km (purified protein [12]): 390000 ± 40000 M⁻¹ s⁻¹; Km (purified protein [13]): 260 ± 30 µM; kcat (purified protein [13]): 52 ± 2 s⁻¹; kcat/Km (purified protein [13]): 200000 ± 20000 M⁻¹ s⁻¹
